Laboratory results as given in paper PMC8206089, “Split NanoLuc technology allows quantitation of interactions between PII protein and its receptors with unprecedented sensitivity and reveals transient interactions” (Scientific Reports, 2021).

Legend:
[1] = biological target: NAGK (Synechococcus elongatus) (UniProt Q6V1L5); test: ultrafiltration; settings: cited from earlier work
[2] = biological target: PII-LgBiT (wild-type PII protein from Synechocystis sp. PCC6803 fused to Large BiT) (Synechocystis sp. PCC6803) (UniProt Q55247); test: split reporter (BiFC, NanoBiT); competition; 10 pM PII-LgBiT trimer with PipX (180, 900, 1800 nM monomer) 15 min at 30 °C, then 180 nM NAGK-SmBiT monomer for 30 min; 2 mM ATP
[3] = biological target: PII-LgBiT (wild-type PII protein from Synechocystis sp. PCC6803 fused to Large BiT) (Synechocystis sp. PCC6803) (UniProt Q55247); test: split reporter (BiFC, NanoBiT); time course; 10 pM PII-LgBiT and 10 nM PipX-SmBiT; ATP/ADP mixtures at a total ADP + ATP concentration of 2 mM
[4] = biological target: PII-LgBiT (wild-type PII protein from Synechocystis sp. PCC6803 fused to Large BiT) (Synechocystis sp. PCC6803) (UniProt Q55247); test: split reporter (BiFC, NanoBiT); time course; 10 pM PII-LgBiT and 10 nM PipX-SmBiT; complex formed with 2 mM ATP, then 2 mM 2-OG added
[5] = biological target: PII-LgBiT (wild-type PII protein from Synechocystis sp. PCC6803 fused to Large BiT) (Synechocystis sp. PCC6803) (UniProt Q55247); test: split reporter (BiFC, NanoBiT); time course; 10 pM PII-LgBiT and 10 nM PipX-SmBiT; complex formed with 1 mM ATP + 1 mM ADP, then 2 mM 2-OG added
[6] = biological target: PII-LgBiT (wild-type PII protein from Synechocystis sp. PCC6803 fused to Large BiT) (Synechocystis sp. PCC6803) (UniProt Q55247); test: split reporter (BiFC, NanoBiT); in solution; PipX-SmBiT (0-800 nM) titrated to 10 pM PII-LgBiT trimer; 2 mM ATP; 50 mM Tris/HCl pH 7.6, 100 mM KCl, 10% glycerol, 2 mM MgCl2, 0.1% BSA; 15 min at 30 °C; KD from half-maximal luminescence
[7] = biological target: PII-LgBiT (wild-type PII protein from Synechocystis sp. PCC6803 fused to Large BiT) (Synechocystis sp. PCC6803) (UniProt Q55247); test: split reporter (BiFC, NanoBiT); in solution; PipX-SmBiT (0-800 nM) titrated to 10 pM PII-LgBiT trimer; 2 mM ADP; 50 mM Tris/HCl pH 7.6, 100 mM KCl, 10% glycerol, 2 mM MgCl2, 0.1% BSA; 15 min at 30 °C; KD from half-maximal luminescence

Sequence of PII-LgBiT (wild-type PII protein from Synechocystis sp. PCC6803 fused to Large BiT) (Synechocystis sp. PCC6803) (Q55247 whole entry, the tested form may be a part): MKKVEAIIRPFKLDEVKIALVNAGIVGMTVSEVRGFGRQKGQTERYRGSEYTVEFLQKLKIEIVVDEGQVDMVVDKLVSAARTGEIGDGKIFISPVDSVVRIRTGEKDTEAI
Sequence of NAGK (Synechococcus elongatus) (Q6V1L5 whole entry, the tested form may be a part): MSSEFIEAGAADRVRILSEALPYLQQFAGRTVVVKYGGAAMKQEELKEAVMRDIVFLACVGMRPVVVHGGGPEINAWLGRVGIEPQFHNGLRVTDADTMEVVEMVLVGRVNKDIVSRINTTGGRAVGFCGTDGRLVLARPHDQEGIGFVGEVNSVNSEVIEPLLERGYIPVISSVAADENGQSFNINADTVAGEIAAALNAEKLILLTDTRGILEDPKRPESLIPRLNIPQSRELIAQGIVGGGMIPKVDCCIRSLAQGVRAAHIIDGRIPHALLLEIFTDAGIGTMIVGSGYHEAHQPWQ
Sequence of PII (P0A3F4 whole entry): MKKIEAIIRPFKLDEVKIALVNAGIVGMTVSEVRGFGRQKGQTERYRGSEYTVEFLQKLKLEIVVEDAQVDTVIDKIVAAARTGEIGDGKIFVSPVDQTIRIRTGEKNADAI

In the case of PII (from UniProt P0A3F4), the Kd [1] is listed as 73 nM.

Substance “PipX (without SmBiT, competitor) (natural protein)” has a luminescence signal of PII-LgBiT with NAGK-SmBiT left at PipX 1:1 to NAGK (2 mM ATP) [2] of 50%.

Substance “PipX-SmBiT (PII-interacting protein X fused to Small BiT) (natural protein)” has a luminescence signal with 0.5 mM ADP + 1.5 mM ATP (percent) [3] of 80%, a time until half of the complex was dissociated after adding 2 mM 2-OG (2 mM ATP) [4] of 45 s and a time until half of the complexes was dissociated after adding 2 mM 2-OG (1 mM ATP + 1 mM ADP) [5] of 340 s. For the same substance, the Kd [6] was 52 nM and the Kd [7] was 5.7 nM.
